B1: scFv 4G5 (scFv, V domains shown)
VH: QVQLQESGLGLVKPSETLSLTCAVSGYSITSGYYWGWIRQTPGKGLEWIGRIYYGGSTHYNPSLQSRVTISVDTAKNQFSLKLSSVTAADTAVYYCARDRNYQSLSGYCLDYWGQGKVVTVSS
VL: EIVLTQSPGTLSVSPGERATLSCRASQSVSSHIAWYQQKPGQAPRLLIHGASTRATGVPARFSGSGSGTEFTLTISSLQSEDFAVYYCQQYNKWPPEYTFGQGTKLEIK
notes: Human scFv secreted by yeast, one polypeptide with His and V5 tags
B2: scFv 2G9 (scFv, V domains shown)
VH: QVQLQESGPGLVKPSETLSLSCTVSGGSISSSSYYWAWIRQPPGKGLEWIGNIYYSGSTYYNPSLKSRVTISVDTSKNQFSLKLSSVTAADTAVYYCARFPLIRGYRYRYDEYWGQGTLVTVSS
VL: DIVMTQSPLSLPVTPGEAASISCRSSQSLLHRDGYHYLNWFLQKPGQSPQLLIYLGSNRASGVPDRFSGSGSGTDFTLKISRVEAEDVGVYYCMQAPQTPRTLLGQGTKLEIK
notes: as for B1
B3: scFv 3E11 (scFv, V domains shown)
VH: QVQLVQSGGGVVQPGRSLRLSCAASGFTFSSYGLHWVRQAPGKGLEWVAAISYDGSKKYYADSVKGRLTISRDNSKNTLYLQMNSLSPEDTALYFCARGWFVEPLSWGQGTLVTVSS
VL: not shown
notes: Human scFv secreted by yeast (p416-BCCR vector), one polypeptide; purified on nickel/anti-HIS and detected with anti-V5, so it carries His and V5 tags
B4: scFv 3D8 (scFv, V domains shown)
VH: QVQLVQSGGGLAQPGGSLRLSCAASGSSFSTFVLSWVRQTPGKGLQWVSTISGSGTSTYYADSVKGRFTVSRDNAKNTQYLQMNSLRAEDTAIYYCARHKSFGVQWLWGQGALVVRLL
VL: VHIVMTQSPLSLPVTLGQPASISCWSSQSLVYGDGNTYLNWFQQRPGQSPRRLIYKVSNRDSGVPDRFSGSGSGTDFTLKISRVEAEDVGVYYCMQGTHWPPGTFGGGTKLEIK
notes: as for B1

Legend:
[1] = molecular target: GST protein (UniProt P08515 1-218 = GST); assay: dot blot, 10 ng GST per spot, scFv detected with anti-V5 mAb and IR680 anti-mouse
Chain of GST protein (P08515 whole entry): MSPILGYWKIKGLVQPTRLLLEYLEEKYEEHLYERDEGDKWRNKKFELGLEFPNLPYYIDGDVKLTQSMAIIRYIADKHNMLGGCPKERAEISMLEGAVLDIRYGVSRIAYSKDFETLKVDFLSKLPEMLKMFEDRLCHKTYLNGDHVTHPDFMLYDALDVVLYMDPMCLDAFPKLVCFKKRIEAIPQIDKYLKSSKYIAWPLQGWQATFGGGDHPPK
Experimental: (§1) FIG. 4A depicts the results of immunoblot analysis of binding of scFv to rhGPC3. The antigens including rhGPC3 and GST protein were spotted onto cellulose membrane (10 ng/each). After the blocking step the membrane were incubated with the scFvs antibody in room temperature for 1 h. The binding of scFv to antigen was detected by incubation with mouse anti-V5 mAb following by infrared dye IR680-labeled anti-mouse antibodies. PBS was used as negative control. FIG. 4B depicts results of direct ELISA for affinity determination of scFv 3E11. Two different concentrations of rhGPC3 protein (0.5 and 1.0 ug/ml) were coated and incubated with serial diluted scFv 3E11. For detection, mouse-sourced anti-V5 mAb following HRP-conjugated anti-mouse antibody and SureBlue substrate (measured at 450 nm) was used. FIG. 4C depicts EC50 values for 5 candidate scFvs determined by direct ELISA, Assays were performed twice separately for each scFv.

[2] = molecular target: T1, full-length glycosylated recombinant hGPC3 protein expressed in a murine myeloma cell line (human, UniProt P51654 25-559, limits assumed); assay: direct ELISA on rhGPC3 coated at 0.5 ug/ml
T1 construct: Bought protein; also called rhGPC3; full length hGPC3 protein expressed by mammalian cells
T1 sequence (P51654 25-559 limits assumed): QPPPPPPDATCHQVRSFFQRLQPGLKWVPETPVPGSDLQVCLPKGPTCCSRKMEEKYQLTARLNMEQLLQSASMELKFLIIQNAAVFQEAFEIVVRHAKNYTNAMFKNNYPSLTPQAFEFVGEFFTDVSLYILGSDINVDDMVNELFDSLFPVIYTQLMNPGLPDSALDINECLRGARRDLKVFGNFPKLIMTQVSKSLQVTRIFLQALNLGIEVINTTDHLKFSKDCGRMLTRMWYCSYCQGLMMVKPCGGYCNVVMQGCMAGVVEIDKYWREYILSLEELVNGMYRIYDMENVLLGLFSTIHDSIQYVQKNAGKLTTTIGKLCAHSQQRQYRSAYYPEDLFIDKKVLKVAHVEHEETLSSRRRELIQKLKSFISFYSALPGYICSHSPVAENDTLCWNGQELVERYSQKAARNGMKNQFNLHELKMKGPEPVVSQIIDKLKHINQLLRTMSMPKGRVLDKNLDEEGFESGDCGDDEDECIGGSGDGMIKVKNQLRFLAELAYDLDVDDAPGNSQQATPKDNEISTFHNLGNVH
Experimental: as §1
(§2) After three washing steps with PBS/0.1% Tween-20 (PBST), 300 ul per well of blocking solution (2% milk in PBS pH 7) was added for 2 h at room temperature then washed three tinmes with PBST. Candidate scFv starting at 100 ug/ml were added with serial dilutions, incubated for Ih at room temperature followed by three washing steps with PBST, scFv binding was detected by adding anti-V5 HRP (Invitrmgen), washing ×4 with PBST, washing ×1 with PBS, then adding 50 ul/well of TMB peroxidase substrate (KPL, Gaithersburg Md.) plus peroxidase substrate solution B at 1:1 ratio, then the reaction was stopped using 50 ul of 0.5M H₂SO₄. OD450 was measured using a BioRad 680 microplate reader. For determination of functional affinity, half maximal binding concentration (EC50) was calculated with non-linear regression curve fit algorithm using the software program PRISM (GraphPad Software, San Diego, Calif.). rhGPC3 expressed in a murine myeloma cell line which was commercially obtained from R&D Systems (Minneapolis Minn.).

[3] = molecular target: T1, full-length glycosylated recombinant …; assay: direct ELISA on rhGPC3 coated at 1 ug/ml
Experimental: as §1, §2

[4] = molecular target: T1, full-length glycosylated recombinant …; assay: direct ELISA, rhGPC3 coated at 1 ug/ml; rhGPC3 at 1 ug/ml
Experimental: as §1
(§3) After three washing steps with PBS/0.1% Tween-20 (PBST), 300 ul per well of blocking solution (2% milk in PBS pH 7) was added for 2 h at room temperature then washed three tinmes with PBST. […] OD450 was measured using a BioRad 680 microplate reader. […]

[5] = molecular target: T1, full-length glycosylated recombinant …; assay: direct ELISA, rhGPC3 coated at 0.5 ug/ml; rhGPC3 at 0.5 ug/ml
Experimental: as §1, §3

[6] = molecular target: T1, full-length glycosylated recombinant …; assay: direct ELISA on rhGPC3, lower coat (open circles; key prints '0.5mg/ml', legend says 0.5 ug/ml)
Experimental: as §1, §3

[7] = molecular target: T1, full-length glycosylated recombinant …; assay: ELISA on rhGPC3 precoated at 1 ug/ml; drawn table headed 'Table 1. Kd of scFv candidates', column EC50 (nM)

Binder	binding result [1]	EC50 [2] [nM]	EC50 [3] [nM]	EC50 [4] [nM]	EC50 [5] [nM]	EC50 (read off the curve) [6] [nM]	EC50 [7] [nM]
B1	no binding	38.8	–	–	–	–	–
B2	no binding	–	111	–	–	–	–
B3	no binding	12	11.1	14	11	~10	12
B4	–	106	94.7	–	–	–	–

— patent US20140322216A1 (University of Pennsylvania, published 2014)
